Results published in US20240252614A1 (Pfizer, published 2024).

Experiments:
[1] = molecular target: T1, stabilized hPIV1 F protein trimer in pre-fusion conformation (human parainfluenza virus 1); assay: ELISA, F protein coated
T1 construct: also called preF-hPIV1; HPIV1 pre-fusion F protein
Method: (§1) Briefly, 96-well microtiter plates were coated with 100 μL/well of individual F protein at 2 μg/mL, and then incubated at 4° C. overnight. After washing with 0.01M TBS/0.1% Brij-35, the plates were blocked with 5% non-fat milk for 1 hr at RT. […] After 3 washes with 0.01M TBS/0.1% Brij-35, 100 μL/well of secondary antibody (HRP-anti-human Fc) in a 1:3000 dilution was added to the plates and incubated for 1 hr RT. After 3 washes with 0.01M TBS/0.1% Brij-35, 100 μL/well of TMB-ELISA Substrate Solution was added to the plates. The reaction was stopped with addition of 100 μL/well of 2N H2SO4 after 2 minutes. The plates were then read on a SpectraMax microplate reader with SoftMax Pro software at OD 450 nm (Molecular Devices). The data was analyzed with Graphpad Prism software.

[2] = molecular target: T2, hMPV078 (hMPV A, UniProt Q6WB98 19-102); assay: BLI, 53C stress
T2 construct: T411C-Q434C, A140C-S149C
Method: (§2) The OCTET HTX (Sartorius, Gottingen, Germany) instrument was used to evaluate the expression and conformational integrity for each mutant. All measurements were conducted at 30° C. temperature in 96-well black plates (Corning, Corning, NY) with a final volume of 240 μL per well at a constant agitation rate of 1000 RPM.
(§3) Conformation integrity of hMPV A F protein mutants were evaluated by thermal stress experiments. Crude cell culture supernatants were normalized based on the results of the titer quantitation and then incubated for 1 hour at room temperature and two higher temperatures. […] Anti-Human IgG Fc Capture (AHC) biosensors were first equilibrated in PB before being dipped into more PB to establish the initial baseline. […] The mAb-bound biosensors were then dipped into the thermal stressed cell culture supernatants for 5 minutes. The kinetics analysis was done by OCTET data analysis software (version 12.0, Sartorius) based on curve fitting of the entire associate step.

[3] = molecular target: T3, hMPV089 (hMPV A, UniProt Q6WB98 19-102); assay: BLI, 53C stress
T3 construct: T411C-Q434C, L141C-A161C, S149T
Method: as §2, §3

[4] = molecular target: T4, hMPV087 (hMPV A, UniProt Q6WB98 19-102); assay: BLI, 53C stress
T4 construct: T411C-Q434C, L141C-A161C, T365I
Method: as §2, §3

[5] = molecular target: T5, hMPV084 (hMPV A, UniProt Q6WB98 19-102); assay: BLI, 53C stress
T5 construct: T411C-Q434C, L141C-A161C
Method: as §2, §3

[6] = molecular target: T6, hMPV090 (hMPV A, UniProt Q6WB98 19-102); assay: BLI, 53C stress
T6 construct: T411C-Q434C, L141C-A161C, A459P, G239A, T49I, S149T, T365I
Method: as §2, §3

[7] = molecular target: T7, hMPV085 (hMPV A, UniProt Q6WB98 19-102); assay: BLI, 53C stress
T7 construct: T411C-Q434C, L141C-A161C, A459P
Method: as §2, §3

[8] = molecular target: T8, hMPV081 (hMPV A, UniProt Q6WB98 19-102); assay: BLI, 53C stress
T8 construct: T411C-Q434C, A140C-S149C, T365I
Method: as §2, §3

[9] = molecular target: T9, hMPV082 (hMPV A, UniProt Q6WB98 19-102); assay: BLI, 53C stress
T9 construct: T411C-Q434C, A140C-S149C, G239A
Method: as §2, §3

[10] = molecular target: T10, hMPV097 (hMPV A, UniProt Q6WB98 19-102); assay: BLI, 53C stress
T10 construct: T411C-Q434C, E146C-T160C, A459P, G239A, T49I, S149T, T365I
Method: as §2, §3

[11] = molecular target: T11, hMPV A F WT Control (hMPV A, UniProt Q6WB98 19-102); assay: BLI, 53C stress
Method: as §2, §3

[12] = molecular target: T12, hMPV083 (hMPV A, UniProt Q6WB98 19-102); assay: BLI, 53C stress
T12 construct: T411C-Q434C, A140C-S149C, A459P, G239A, T49I, T365I
Method: as §2, §3

[13] = molecular target: T13, hMPV061 (hMPV A, UniProt Q6WB98 19-102); assay: BLI, 50C stress
T13 construct: G106A
Method: as §2, §3

[14] = molecular target: T14, hMPV063 (hMPV A, UniProt Q6WB98 19-102); assay: BLI, 50C stress
T14 construct: G239A
Method: as §2, §3

[15] = molecular target: T15, hMPV062 (hMPV A, UniProt Q6WB98 19-102); assay: BLI, 50C stress
T15 construct: G121A
Method: as §2, §3

[16] = molecular target: T16, hMPV055 (hMPV A, UniProt Q6WB98 19-102); assay: BLI, 50C stress
T16 construct: N145P
Method: as §2, §3

[17] = molecular target: T17, hMPV060 (hMPV A, UniProt Q6WB98 19-102); assay: BLI, 50C stress
T17 construct: A459P
Method: as §2, §3

[18] = molecular target: T18, hMPV058 (hMPV A, UniProt Q6WB98 19-102); assay: BLI, 50C stress
T18 construct: L187P
Method: as §2, §3

[19] = molecular target: T19, hMPV047 (hMPV A, UniProt Q6WB98 19-102); assay: BLI, 50C stress
T19 construct: L141C-A159C
Method: as §2, §3

[20] = molecular target: T20, hMPV053 (hMPV A, UniProt Q6WB98 19-102); assay: BLI, 50C stress
T20 construct: L110P
Method: as §2, §3

[21] = molecular target: T21, hMPV066 (hMPV A, UniProt Q6WB98 19-102); assay: BLI, 50C stress
T21 construct: T49I
Method: as §2, §3

[22] = molecular target: T22, hMPV077 (hMPV A, UniProt Q6WB98 19-102); assay: BLI, 50C stress
T22 construct: Q476C, S477C
Method: as §2, §3

[23] = molecular target: T23, hMPV043 (hMPV A, UniProt Q6WB98 19-102); assay: BLI, 50C stress
T23 construct: G366C-D454C
Method: as §2, §3

[24] = molecular target: T24, hMPV045 (hMPV A, UniProt Q6WB98 19-102); assay: BLI, 50C stress
T24 construct: I137C-A159C
Method: as §2, §3

[25] = molecular target: T25, hMPV048 (hMPV A, UniProt Q6WB98 19-102); assay: BLI, 50C stress
T25 construct: L141C-A161C
Method: as §2, §3

[26] = molecular target: T26, hMPV046 (hMPV A, UniProt Q6WB98 19-102); assay: BLI, 50C stress
T26 construct: A140C-S149C
Method: as §2, §3

[27] = molecular target: T27, hMPV067 (hMPV A, UniProt Q6WB98 19-102); assay: BLI, 50C stress
T27 construct: S149T
Method: as §2, §3

[28] = molecular target: T28, hMPV054 (hMPV A, UniProt Q6WB98 19-102); assay: BLI, 50C stress
T28 construct: S132P
Method: as §2, §3

[29] = molecular target: T11, hMPV A F WT Control; assay: BLI, 50C stress
Method: as §2, §3

[30] = molecular target: T29, hMPV050 (hMPV A, UniProt Q6WB98 19-102); assay: BLI, 50C stress
T29 construct: V148C-L158C
Method: as §2, §3

[31] = molecular target: T30, hMPV044 (hMPV A, UniProt Q6WB98 19-102); assay: BLI, 50C stress
T30 construct: T411C-Q434C
Method: as §2, §3

[32] = molecular target: T31, hMPV068 (hMPV A, UniProt Q6WB98 19-102); assay: BLI, 50C stress
T31 construct: A159V
Method: as §2, §3

[33] = molecular target: T32, stabilized hMPV F protein trimer in pre-fusion conformation (human metapneumovirus); assay: ELISA, F protein coated
T32 construct: also called preF-hMPV; hMPV pre-fusion F protein
Method: as §1

B1: PIV1-8 mAb (antibody, V domains shown)
VH: QVQLVQSGAEVKKPGSSVKVSCEASGGTFSNYVISWVRQAPGQGLEWMGGIIPVFATAKYAQKFQGRVTIIADQSTNTAYLELSSLRSDDTAVYFCASVDSGGTWWDAFAIWGQGTMVTVSS
VL: QAVVTQPRSVSGSPGQAVTISCTGTSSDVGGYNYVSWYQHHPGKAPKLIIYDVTKRPSGVPDRFSGSKSGNTASLTISGLQTEYEADYYCCSYAGSYTLVFGGGTKLTVLG
notes: human IgG1; also called hPIV1-8 mAb; hPIV1-8
- EC50 [1]: 0.103 nM

B2: hMPV-2 mAb (antibody, V domains shown)
VH: QVQLQQSGAEVKKPGASVKVSCKASGYTFTSYGISWVRQAPGQGLEWMGWISGYNGNTNYAQTFQGTFTMTTDTSTSTAYMELRRLRSGDTAVYYCARDRYYASGSYNGMDVWGQGTTVTVSS
VL: QSALTQPPSASGAPGQRVTVSCSGSSSNVGSSSVYWYQQLPGTAPKLLIYRNNQRPSGVPDRFSGSKSGTSASLAISGLRSEDEADYYCAAWDDSLSGWVFGGGTKLTVLG
notes: human IgG1
- Response Shift [2]: 0.757 nm
- Response Shift [3]: 0.801 nm
- Response Shift [4]: 0.709 nm
- Response Shift [5]: 0.776 nm
- Response Shift [6]: 0.815 nm
- Response Shift [7]: 0.672 nm
- Response Shift [8]: 0.778 nm
- Response Shift [9]: 0.816 nm
- Response Shift [10]: 0.82 nm
- Response Shift [11]: -0.014 nm
- Response Shift [12]: 0.755 nm
- Response Shift [13]: 0.561 nm
- Response Shift [14]: 0.685 nm
- Response Shift [15]: 0.46 nm
- Response Shift [16]: 0.194 nm
- Response Shift [17]: 0.707 nm
- Response Shift [18]: 0.494 nm
- Response Shift [19]: -0.039 nm
- Response Shift [20]: 0.566 nm
- Response Shift [21]: 0.738 nm
- Response Shift [22]: 0.635 nm
- Response Shift [23]: 0.567 nm
- Response Shift [24]: 0.124 nm
- Response Shift [25]: 0.439 nm
- Response Shift [26]: 0.472 nm
- Response Shift [27]: 0.654 nm
- Response Shift [28]: 0.467 nm
- Response Shift [29]: 0.284 nm
- Response Shift [30]: 0.142 nm
- Response Shift [31]: 0.737 nm
- Response Shift [32]: 0.441 nm
- EC50 [33]: 0.097 nM
